In the DeepSol protein solubility set:

Assay: soluble on expression in E. coli; label from the status in PepcDB or PDB records

For “MISSMTGFGRSKVESDTFQITVEMKSVNHRFLEMSIRLPKQMMVFEDKIRKIIAQQVRRGRIEVSISIAGEGLVERKLSVNWSLLEQYQSMMEDIKGKFQLQDSITLEQLMAMPEVTAIEEIENVNEHFENSLYEAVRQAAHMLKTMRDGEGERLHKDIAYRLQEISNCVNAIIPHAPIVTQKYRERLENRLKELHNQDLDEQRLLTEVAIFAERCDIHEELVRLQSHLEQFRETLQIEEPVGRKMDFIVQEMHREINTIGSKANDLTISKYVVEMKNNLEKIREQVQNIE”, the “soluble on expression in E. coli” value was “not soluble”.

For “MAVSPDDPLILVGRVAGGFGVRGEVRITTYTEDPLSIAGFKALKRQDGSPALTIASARKTKDGVVCRCPGVETKEAADALRGLRLYVPRSALPEPDDDEFYLTDLVGLTVRHIQTDQLLGRVKSVQNFGAGDILEITPDLGGPTWYLPFTRAAVPEVRVSEGLILADPPALVGDHEGPEEKGLDENEELGDRDAAALEHHHHHH”, the “soluble on expression in E. coli” value was “not soluble”.

For “MGSDKIHHHHHHMSLNKNLNDIEKSQLIELMHESLRIRSHFELFLWMQGKLQVFLPHEIMITAWGDFSLGVIYFNIVSPLPGIRSDKIASHEINQFLQNLFNYWLNHAKAPFTLAAADNILHDCEFSNKESSYYLKNMKSALVHAIKDHRGRHDCLYVLLSSNLSFPPASRPMLEALLPYIDSALRQIEHLPEQQPTLIKAEPEPKDESLNILSGRELEIMDWVTKGKTNQEIGMILDISAFTVKNHLQRIFKKLNVMNRAQAVAKFRK”, the “soluble on expression in E. coli” value was “not soluble”.

In the case of “MSLADKATIYIIDDDEIFQFITRKSFERLERNDNLFFFLNGEDALSSIKEAISGNKPSPDLIFLDINMPIMDGWDFLAELIKLEGEMKKTPQIYMVSSSIDDKDLIKSKTYNMIKDYIVKPIKDTHIKELLNNLNEGHHHHHH”, the “soluble on expression in E. coli” value is reported as “soluble”.

With “IKLVIVTGMSGAGKTVAIQSFEDLGYFTIDNMPPTLVPKFLELAAQSGDTSKIAMVVDMRSRLFFREINSILDSLEINDNINFKILFLDATDTELVSRYKETRRSHPLAADGRVLDGISLERELLAPLKSMSQNVVDTSELTPRQLRKVISKEFSNQDSQSSFRIEVMSFGFKYGIPLDADLVFDVRFLPNPYYKPELRDKTGLDTEVYDYVMSFDESDDFYDHLLALIKPILPGYQNEGKSVLTVAIGCTGGQHRSTAFAHRLSEDLKADWTVNESHRDKNKR” the “soluble on expression in E. coli” value was “not soluble”.

For “MRLYMEMTNAQRLILSNQYFLMSQLDPNNANKYKRLQTIVERGYELHMRELNREFGCLPETECREIIDIMEMYHAMQESNRMLDDAARKDVDQRRLTFLGFDMATEAQLVNYVRFLVDSEGLYPQFDKGEHHFNSQMPMLAKYRRMLTTWRNCPRQYHLSGNELRQIMNA”, the “soluble on expression in E. coli” value was “not soluble”.

In the case of “MSLKQINIQKFITAKRIAKYSSLESYKLNILESQKYYSSLSILEVSLRNAIDFYFTERYGESWTDLLDIFKYKEISKIEEAKNFLKLKQEECTKDKIVAELNFGFCTSLFSKTYEEQMRKNNLIKIFNNLPKNKQINRAYLSRKLNNIRNFRNRIFHYEKIINKPEYLNIENDINEILEFLDKEILGFSIGLNIEGHHHHHH”, the “soluble on expression in E. coli” value is reported as “soluble”.

In the case of “MGSDKIHHHHHHMERYSGRIFDNHFHLNPKSNFLGAANIFKRSGGTTLNLTNLPSHDAITEYYRRLYDDTIRIGDLVHYELGLEMLITIGPYPFDYFFFERYGSDPVNEMMHGLDLAAKYIEDGKAEAIGEIGFPHVPQPESVMERFWEMLDYAMKIAHDVDAPIVMHTYDLSCEDYAKIEKIAKVNGSVSVVKHHARPSDLTCNTGIARSVPASRSAVRKSLLLSRNFMLETDFINDPIDANRFLPPDSVPKRAQMILQEYDDGSEILNNIFNTIPESIYPKLKEKR”, the “soluble on expression in E. coli” value is reported as “not soluble”.

In the case of “MDRTTPWQQQPIRYSADLEKPSPREQADIEKIMAKLLKNNERAYDKYKHGLRDAHAKSHAILRGELIVNEGLPPELAQGLFAEPRTYPVIARLSSTSGVRRSDKTRGVRGLGLKVLGVQGEKILPDDSSTNQDFVMVTHEDFLFADAHAYAGLGMITASLLARLSDQALWLGSGLLDLVSKAGIKLPDNLMVFVAPNRPILGLEFFSSAPFRHGDHVAKYRFAPASENVKALSGQLLPRNPAPEQHRDMIAEFFADQTAEFDFSAQLCTDPVAMPIEDAGKNWDKSISPYVSVAKIVFGPQNPYSALRRAYGDDVLAFNSWRGLAEHRPLGSINRLKKTVYESSADYRHRVNRIDRHEPVDISELPDLEHHHHHH”, the “soluble on expression in E. coli” value is reported as “soluble”.

In the case of “MQNRLTIKDIARLSGVGKSTVSRVLNNESGVSQLTRERVEAVMNQHGFSPSRSARAMRGQSDKVVAIIVTRLDSLSENLAVQTMLPAFYEQGYDPIMMESQFSPQLVAEHLGVLKRRNIDGVVLFGFTGITEEMLAHWQSSLVLLARDAKGFASVCYDDEGAIKILMQRLYDQGHRNISYLGVPHSDVTTGKRRHEAYLAFCKAHKLHPVAALPGLAMKQGYENVAKVITPETTALLCATDTLALGASKYLQEQRIDTLQLASVGNTPLMKFLHPEIVTVDPGYAEAGRQAACQLIAQVTGRSEPQQIIIPATLS”, the “soluble on expression in E. coli” value is reported as “soluble”.

With “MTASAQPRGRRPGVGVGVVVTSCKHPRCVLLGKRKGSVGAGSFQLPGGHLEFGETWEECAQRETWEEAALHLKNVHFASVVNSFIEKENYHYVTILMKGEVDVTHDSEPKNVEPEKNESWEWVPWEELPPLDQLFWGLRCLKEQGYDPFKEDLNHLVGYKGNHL” the “soluble on expression in E. coli” value was “soluble”.

With “MIDERLKKDLAILPISTVRALTNLSDRQIRYYESQDLLTTKRGKGGQRRFSLNDVERLIEIRMMMESGDSLKDIHNLYETHRVSNRRNEKTEFVHSLENEFLKIGRLEKH” the “soluble on expression in E. coli” value was “not soluble”.

With “MGSDKIHHHHHHMRYAIYFSPAKDHPLTEAASRWLGRNAFSGTLHDDHDDYADLTEEPRRYGFHATLKAPFELAEKYSEAELLAAVEDFAANQSAFEIPRVVVGALGPFFALVPDRVYQPLQDFAAEVVDHFDRFRAPLSETDIARRRPQMLTESQRQNLSLWGYPHVMDDFRFHMTLTGRIDEEEQPAMQEILSTRFAEFVDQPLAISGLALFIEETRGAPFTVHRWHPLGQQPKKDANP” the “soluble on expression in E. coli” value was “not soluble”.

In the case of “MGSDKIHHHHHHMLYPVKLLKDLVQIKTANPPGSEYESISFYLKDLFNDLGFQIQLIEIPEEYMDKYYIYSPSHKGNKRIIVIAKNSPNPILHFNFHYDVVPPGDGWLTNPFELKVVDNKAYGRGTSDMKGSIVSLYLALSRFNDLPIEIVFVPDEESGGIGTKYLTEEIRIAPSTAIFGEPSFPNVYIGHLGIVRGIIKIFGKQAHASNPKDGINAFLLASKLALKLQEKLGNEIVNLGGYTLNPTNNDGIVPGFFAFSYYRAIPPHDNRTPEFDKNVIDTTAREVGIEYNFEIKSFISGSVSNPDSSVAKAFKFCITSTLNVVPKELISNIRYDAVFYKNLDSINFGPGSLDQAHVPNEYVELDNIEKTIVIYECVMKRIYFNNYR”, the “soluble on expression in E. coli” value is reported as “not soluble”.

With “MGSDKIHHHHHHMPAKVYFTDMTTNPNMNMLQKLELLLKKVELEKIIEKDKFVAVKLHFGEYGNLAFIRPQYVKIIVDQIKKLGGKPFLTDANTLYTGHRSNAVDHLINAYLNGFTYEVTGAPVIIADGLRGSDEIKVKIDGNYVKEAKIGAAIALADAIVAVTHFKGHEATGFGGTIKNVGMGSASRAGKMEQHSESKPYVVEEKCVACGTCAKFCPVGAITVTKVAKIDYEKCIGCGQCIAMCSYGAMSPKWDSSTDSLSKKMAEYAKAVLKDKKAVFISFIMNISPDCDCWNMNKPPVAPDIGIAVSTDPVALDQACIDLVLQKTGKDPFLEVHPDVTWKTQLEYAEEIGLGTREYELVKVACDLK” the “soluble on expression in E. coli” value was “not soluble”.

In the case of “MGSDKIHHHHHHMSVLYDTIGIDYANLRKPDLRIAAQIDAALGDAQSVLNVGAGAGSYEPAGRAVTALEPSAEMIAQRPEGTAPVVQGPAEDLPFADNSFDAAMAVLTIHHWSDKARGLAEMRRVARNRAVLLTYDPAFRGQWQTEYWPGLIGLDDGAMPPMAFFEEHLGPVDTQPVLVPHDCSDGFLYAYWRRPQAYLDPRIRKGSSGFWMIDGVEEGAQRLQADLASGAWAARHAALLERENADMGYRLVIADLV”, the “soluble on expression in E. coli” value is reported as “not soluble”.

For “SSFQTSLPRLPVPAVKDTVSRYLESVRPLMKEGDFQRMTALAQDFAVNLGPKLQWYLKLKSWWATNYVSDWWEEYIYLRGRGPIMVNSNYYAMEMLYITPTHIQAARAGNTIHAILLYRRTVDREELKPIRLLGSTIPLCSAQWERLFNTSRIPGEETDTIQHVKDSRHIVVYHRGRYFKVWLYHDGRLLRPRELEQQMQQILDDTSEPQPGEAKLAALTAADRVPWAKCRQTYFARGKNKQSLDAVEKAAFFVTLDESEQGYREEDPEASIDSYAKSLLHGRCFDRWFDKSITFVVFKNSKIGINAEHSWADAPIVGHLWEYVMATDVFQLGYSEDGHCKGDKNPNIPKPTRLQWDIPGECQEVIETSLSSASFLANDVDLHSFPFDTFGKGLIKKCRTSPDAFIQLALQLAHYKDMGKFCLTYEASMTRLFREGRTETVRSCTTESCNFVLAMMDPTTTAEQRFKLFKIACEKHQHLYRLAMTGAGIDRHLFCLYVVSKYLAVDSPFLKEVLSEPWRLSTSQTPQQQVELFDFEKYPDYVSCGGGFGPVADDGYGVSYIIVGENFIHFHISSKFSSPETDSHRFGKHLRQAMMDIITLFGLTANSKK”, the “soluble on expression in E. coli” value was “soluble”.

For “MHPRSKLSQAQRELAVDLFEEGYGSRAVANRLGVRREQVRHLEDRFRLHGRLCLVSKRTKRQYSFDTKMEILRRHKAGELKSDLAKEYGLSSPALINHWVWQVNKGGPDALRPKPKGRPKSSARPAPVTEEDKLRRENELLKAEVAYLKKLRDLRDQRRGLEHHHHHH”, the “soluble on expression in E. coli” value was “not soluble”.

For “MGSWGMEALESDEGLDLINWVEEQLQDDSTFDAESIVQRLSQHEDLFGFQGDEEFLYDNNVIGLVELIIQKAAGEKITSSKQIDQLDSYRLTSIFSKKLQGRLQTIDDTHEWIMLFEGRAREKAKAYLIEITDKLRVVKTTA”, the “soluble on expression in E. coli” value was “soluble”.

With “MYPDDSLTLHTDLYQINMMQVYFDQGIHNKKAVFEVYFRQQPFKNGYAVFAGLERIVNYLEDLRFSDSDIAYLESLGYHGAFLDYLRNFKLELTVRSAQEGDLVFANEPIVQVEGPLAQCQLVETALLNIVNYQTLVATKAARIRSVIEDEPLMEFGTRRAQEMDAAIWGTRAAVIGGANGTSNVRAGKLFDIPVLGTHAHALVQVYGNDYEAFKAYAATHKNCVFLVDTYDTLRIGVPAAIQVARELGDQINFMGVRIDSGDIAYISKKVRQQLDEAGFTEAKIYASNDLDENTILNLKMQKAKIDVWGVGTKLITAYDQPALGAVYKIVAIEDETGQMRNTIKLSNNAEKVSTPGKKQVWRITSREKGKSEGDYITYDGVDISDMTEIKMFHPTYTYIKKTVRNFDAVPLLVDIFKEGILVYNLPSLTDIQDYARKEFDKLWDEYKRVLNPQHYPVDLARDVWQDKMDLIDKMRKEALGEGEEE” the “soluble on expression in E. coli” value was “not soluble”.

With “MGVQTHVLELTSSVSAEKIFQGFVIDVDTVLPKAAPGAYKSVEIKGDGGPGTLKIITLPDGGPITTMTLRIDGVNKEALTFDYSVIDGDILLGFIESIENHVVLVPTADGGSICKTTAIFHTKGDAVVPEENIKYANEQNTALFKALEAYLIAN” the “soluble on expression in E. coli” value was “soluble”.

In the case of “MNLRPVIVGGGSAGMAAAIELARRGVPCVLFDEASRPGGVVYRGPLRAGVDPAYLGARYTRMLEKLRRDFSACAGHIDLRLNSRVVGGDGQRLMVLDEAERLHEVEYSHLLLATGCHERSVPFPGWTLPGVMLLGGLQLQIKSGVVKPLGDTLIAGSGPLLPLVACQLHAAGVRVAGVYEACAFGRMARESLALLNKPQLFLDGLSMLGYLKLNGIPLHYGWGVVEASGDGELTEVTVAPYDEEWRPDLENARPVKASTLAVGYGFIPRTQLSQQLGLEHGFSDDGYLRAECNVWQQSSQPHIHLAGDMAGIRGGEAAMIGGRIAALSILLQREAIAPAEAIERRESHLARLEAIKRFRAGVERYTQRGARQVELARADTVICRCEQVTRGDIERALEQGVQDIAGLKMRTRAGMGDCQGRMCIGYCSDRLRRATGRHDVGWLRPRFPIDPIPFSAFQNLGTEALEHHHHHH”, the “soluble on expression in E. coli” value is reported as “not soluble”.
